Kd, EC50 and maximal killing, ADCC against PD-L1-positive MDA-MB-231 breast tumor cells data for one substance are collected here from patent US20200002425A1.

Assay [1] addresses TGFβ1 (human) (UniProt P01137). In words: SPR, binder immobilized by Fc capture, TGFβ1 as analyte, OneStep kinetic analysis on Pioneer FE (Fortebio). On the technique in general: In SPR one partner is held on a chip, and binding of the other changes the refractive index at the surface.
The target in assay [2] is human PD-L1 expressed on cells (H441 lung tumor cells; MDA-MB-231 cells; artificial antigen presenting cells) (human) (UniProt Q9NZQ7). Kind of assay: flow cytometry on PD-L1+ H441 cells, APC anti-human IgG Fc detection; the table has no unit, pM is from the graph's axis Concentration(pM).
Chain of human PD-L1 expressed on cells (H441 lung tumor cells; MDA-MB-231 cells; artificial antigen presenting cells) (human) (Q9NZQ7 19-290): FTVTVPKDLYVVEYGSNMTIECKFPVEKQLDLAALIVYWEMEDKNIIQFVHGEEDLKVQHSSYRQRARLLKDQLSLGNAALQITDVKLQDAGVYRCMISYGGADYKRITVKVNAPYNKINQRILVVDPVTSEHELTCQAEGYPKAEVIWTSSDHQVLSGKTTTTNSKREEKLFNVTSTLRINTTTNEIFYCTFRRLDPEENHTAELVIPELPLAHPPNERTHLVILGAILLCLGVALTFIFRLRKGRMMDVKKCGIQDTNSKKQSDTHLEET
Assay [3] concerns the target TGFβ2 (UniProt P61812). In words: SPR, binder immobilized by Fc capture, TGFβ2 as analyte, OneStep kinetic analysis on Pioneer FE (Fortebio).
In assay [4] the target is human PD-L1 expressed on cells (H441 lung tumor cells; MDA-MB-231 cells; artificial antigen presenting cells) (human) (UniProt Q9NZQ7). In words: cell-based or functional assay.
The target of assay [5] is PD-L1 (soluble analyte in the SPR assay) (UniProt Q9NZQ7). Kind of assay: SPR, binder immobilized by Fc capture, PD-L1 as analyte, OneStep kinetic analysis on Pioneer FE (Fortebio).
Chain of PD-L1 (soluble analyte in the SPR assay) (Q9NZQ7 19-238 limits assumed): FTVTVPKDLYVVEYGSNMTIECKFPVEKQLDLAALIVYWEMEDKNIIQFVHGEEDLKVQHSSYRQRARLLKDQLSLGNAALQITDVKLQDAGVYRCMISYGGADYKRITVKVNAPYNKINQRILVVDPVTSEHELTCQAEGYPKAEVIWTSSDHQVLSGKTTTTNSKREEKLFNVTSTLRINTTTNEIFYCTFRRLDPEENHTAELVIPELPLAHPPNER

Chain of TGFβ2 (P61812 303-414 limits assumed): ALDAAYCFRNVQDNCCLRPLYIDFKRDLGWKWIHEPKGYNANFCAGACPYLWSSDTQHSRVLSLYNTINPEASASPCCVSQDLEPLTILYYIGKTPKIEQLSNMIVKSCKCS
Chain of TGFβ1 (human) (P01137 279-390 limits assumed): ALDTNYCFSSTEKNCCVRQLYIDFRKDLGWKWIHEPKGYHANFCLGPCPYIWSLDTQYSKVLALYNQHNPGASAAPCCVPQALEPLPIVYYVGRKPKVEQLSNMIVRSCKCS

Usually Kd stands for the equilibrium constant for the complex coming apart. For orientation: EC50 means the concentration at which the effect is half-maximal. As for “αPDL1/TXM/TGFβRII (N-810A); IL-15N72D:αPDL1/IL-15RαSu/Fc/TGFβRII fusion protein complex (from UniProt P40933 49-162) (Fc fusion)”, the Kd in assay [1] came to 240 pM; in assay [3], 520 pM; in assay [5], 7600 pM. Also, the EC50 in assay [2] was 182 pM. The maximal killing, ADCC against PD-L1-positive MDA-MB-231 breast tumor cells in assay [4] was determined as 30%.
